# Laboratory results: US20240209113A1 (BEIGENE SWITZERLAND, published 2024)
# Substitutions are numbered along the chain they refer to. Several values for one entry are separate records, joined by “and”; a condition that tells them apart may be missing. Equal values may be shown once.
# T1: Monkey CD137 (recombinant protein, Example 11) (cynomolgus monkey, UniProt Q07011 24-186 (human entry), limits assumed)
# T1 construct: also called cynomolgus monkey CD137
# T1 chain: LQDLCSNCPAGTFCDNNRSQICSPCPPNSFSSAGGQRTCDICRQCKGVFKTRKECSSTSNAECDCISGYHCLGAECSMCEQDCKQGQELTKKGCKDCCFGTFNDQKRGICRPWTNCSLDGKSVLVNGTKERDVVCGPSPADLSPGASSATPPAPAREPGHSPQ
# T2: GK28b (human GPC3 AA 537-563) (human, constructed to the N terminal of biotin, generating GK28b-KLH (so in the source))
# T2 construct: also called GK28b-KLH
# T2 peptide: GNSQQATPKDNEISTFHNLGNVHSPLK
# T3: DS50b (human GPC3 AA 511-560) (human, constructed to the N terminal of biotin, generating DS50b-KLH (so in the source))
# T3 construct: also called DS50b-KLH
# T3 peptide: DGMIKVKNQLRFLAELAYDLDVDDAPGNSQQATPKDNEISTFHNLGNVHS
# T4: Mouse CD137 (mouse, UniProt P20334 24-187, limits assumed)
# T4 construct: also called murine CD137
# T4 sequence (looked up): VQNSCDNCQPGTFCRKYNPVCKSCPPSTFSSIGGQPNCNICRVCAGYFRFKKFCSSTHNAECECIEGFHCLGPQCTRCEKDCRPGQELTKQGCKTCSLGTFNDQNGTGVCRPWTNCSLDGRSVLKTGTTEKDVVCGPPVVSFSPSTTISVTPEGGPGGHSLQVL
# T5: FcγRIIB (UniProt P31994 43-217, limits assumed)
# T5 sequence (looked up): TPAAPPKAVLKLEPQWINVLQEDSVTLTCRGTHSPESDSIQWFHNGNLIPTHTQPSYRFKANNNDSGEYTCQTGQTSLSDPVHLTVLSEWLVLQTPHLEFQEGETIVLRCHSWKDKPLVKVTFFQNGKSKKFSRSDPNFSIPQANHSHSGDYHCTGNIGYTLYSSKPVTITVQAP
# T6: FcγRIIAH131 (UniProt P12318 36-218, limits assumed)
# T6 sequence (looked up): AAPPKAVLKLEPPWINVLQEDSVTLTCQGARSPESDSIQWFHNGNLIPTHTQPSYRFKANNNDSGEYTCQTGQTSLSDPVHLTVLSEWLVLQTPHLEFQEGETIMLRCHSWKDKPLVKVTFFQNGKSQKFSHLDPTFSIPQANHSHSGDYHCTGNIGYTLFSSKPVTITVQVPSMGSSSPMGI
# T7: FcγRIIAR131 (UniProt P12318 36-218, limits assumed)
# T7 sequence (looked up): T6 sequence (looked up) with H132R
# B1: BE-830 (bispecific antibody, human IgG1, kappa)
# heavy: QVQLVQSGAEVKKPGASVKVSCKASGYTFTDYEMHWVRQAPGQGLEWMGALDPKTGDTAYSQKFKGRVTLTADKSTSTAYMELSSLTSEDTAVYYCTRFYSYTYWGQGTLVTVSSASTKGPSVFPLAPSSKSTSGGTAALGCLVKDYFPEPVTVSWNSGALTSGVHTFPAVLQSSGLYSLSSVVTVPSSSLGTQTYICNVNHKPSNTKVDKKVEPKSCDKTHTCPPCPAPPAAGPSVFLFPPKPKDTLMISRTPEVTCVVVDVSHEDPEVKFNWYVDGVEVHNAKTKPREEQYNSTYRVVSVLTVLHQDWLNGKEYKCKVSNKALAAPIEKTISKAKGQPREPQVYTLPPSREEMTKNQVSLTCLVKGFYPSDIAVEWESNGQPENNYKTTPPVLDSDGSFFLYSKLTVDKSRWQQGNVFSCSVMHEALHNHYTQKSLSLSPGKGGGGSEVQLLESGGGLVQPGGSLRLSCAASGFTVSAEDVGWVRQAPGKGLEWVSAILDKGGSTYYAESVKGRFTISRDNAKNTLYLQMSSLRAEDTAVYYCARIVYHAGGGVTFDTRGQGTQVTVSS
# light: DVVMTQSPLSLPVTPGEPASISCRSSQSLVHSNRNTYLHWYLQKPGQSPQLLIYKVSNRFSGVPDRFSGSGSGTDFTLKISRVEAEDVGVYYCSQNTHVPPTFGQGTKLEIKRTVAAPSVFIFPPSDEQLKSGTASVVCLLNNFYPREAKVQWKVDNALQSGNSQESVTEQDSKDSTYSLSSTLTLSKADYEKHKVYACEVTHQGLSSPVTKSFNRGEC
# notes: also called GPC3×CD137 multispecific antibody BE-830; GPC3 x CD137 (BE-830)
# Columns and labels:
# [1] = molecular target: T8, Human CD137 (recombinant protein, Example 11) (human, UniProt Q07011 24-186); experiment: SPR
# [2] = molecular target: T1, Monkey CD137 (recombinant protein, …); experiment: SPR
# [3] = molecular target: T2, GK28b (human GPC3 AA 537-563); experiment: ELISA on GK28b-KLH [A]
# huGPC3-His = molecular target: T9, huGPC3-His (human, UniProt P51654 25-559); experiment: ELISA on huGPC3-His [C]
# T9 construct: not shown: His tag
# [4] = molecular target: T10, Human GPC3 (recombinant protein, Example 11) (human, UniProt P51654 25-559, limits assumed); experiment: SPR
# Monkey GPC3 = molecular target: T11, Monkey GPC3 (cynomolgous monkey, UniProt A0A2K5VK50 24-553); experiment: SPR
# T11 construct: Bought protein; also called monkey GPC3 (Cat #GP3-C5225, Acrobiosystem)
# [5] = molecular target: T3, DS50b (human GPC3 AA 511-560); experiment: ELISA on DS50b-KLH [B]
# [6] = molecular target: human CD137 ECD mutant P47A (human, UniProt Q07011 24-186); experiment: ELISA on wild type and mutant CD137 proteins
# [7] = molecular target: human CD137 ECD mutant F36A (human, UniProt Q07011 24-186); experiment: ELISA on wild type and mutant CD137 proteins
# [8] = molecular target: human CD137 ECD mutant P49A (human, UniProt Q07011 24-186); experiment: ELISA on wild type and mutant CD137 proteins
# Mouse GPC3 = Mouse GPC3 (mouse, UniProt Q8CFZ4 25-558, limits assumed); experiment: SPR
# Mouse CD137 = molecular target: T4, Mouse CD137; experiment: SPR
# human GPC3 on cells [9] = molecular target: T12, human GPC3 on cells (human, UniProt P51654 25-559); experiment: FACS on Hepa1-6T-OS8-GPC3 cells
# T12 construct: also called Hepa1-6T-OS8-GPC3; GPC3 expressing cells (HepG2, Huh7, Hep3B)
# [10] = molecular target: T13, full-length human CD137 on cells (human, UniProt Q07011 24-255); experiment: FACS on HuT78/CD137 cells
# T13 construct: also called huCD137; native CD137
# C1q = C1q (UniProt P02745 23-245; P02746 28-253; P02747 29-245); experiment: C1q binding ELISA
# FcγRIIIAF158 = FcγRIIIAF158 (UniProt P08637 17-208, limits assumed); experiment: ELISA
# FcγRIIB = molecular target: T5, FcγRIIB; experiment: ELISA
# FcγRIIIAV158 = FcγRIIIAV158 (UniProt P08637 17-208, limits assumed); experiment: ELISA
# FcγRIIIB = FcγRIIIB (UniProt O75015 17-200, limits assumed); experiment: ELISA
# FcγRI = FcγRI (UniProt P12314 16-288, limits assumed); experiment: ELISA
# FcγRIIAH131 = molecular target: T6, FcγRIIAH131; experiment: ELISA
# FcγRIIAR131 = molecular target: T7, FcγRIIAR131; experiment: ELISA
# [11] = molecular target: T8, Human CD137 (recombinant protein, …); experiment: dual antigen binding ELISA with CD137 and GPC3 bound at the same time; which antigen is coated is not stated
# [12] = molecular target: T10, Human GPC3 (recombinant protein, …); experiment: as above
# [13] = molecular target: T13, full-length human CD137 on cells; experiment: cell-based or functional assay
# human GPC3 on cells [14] = molecular target: T12, human GPC3 on cells; experiment: cell-based or functional assay
# T13 sequence (Q07011 24-255 limits assumed): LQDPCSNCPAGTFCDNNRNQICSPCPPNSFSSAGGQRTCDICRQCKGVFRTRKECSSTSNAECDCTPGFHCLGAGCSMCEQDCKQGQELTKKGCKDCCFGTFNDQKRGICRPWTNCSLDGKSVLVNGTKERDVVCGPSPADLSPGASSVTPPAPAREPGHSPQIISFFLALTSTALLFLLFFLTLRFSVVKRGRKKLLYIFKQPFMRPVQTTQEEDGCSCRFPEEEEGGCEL
# T8 sequence (Q07011 24-186 limits assumed): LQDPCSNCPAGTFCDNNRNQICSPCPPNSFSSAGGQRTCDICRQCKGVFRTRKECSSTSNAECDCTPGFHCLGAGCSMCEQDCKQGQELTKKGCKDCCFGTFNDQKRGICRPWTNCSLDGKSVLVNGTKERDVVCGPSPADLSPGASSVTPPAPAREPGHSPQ
# Sequence of human CD137 ECD mutant P47A (Q07011 24-186 P47A limits assumed): as the sequence (Q07011 24-186 limits assumed) above, with P24A counted along it
# Sequence of Mouse GPC3 (Q8CFZ4 25-558 limits assumed): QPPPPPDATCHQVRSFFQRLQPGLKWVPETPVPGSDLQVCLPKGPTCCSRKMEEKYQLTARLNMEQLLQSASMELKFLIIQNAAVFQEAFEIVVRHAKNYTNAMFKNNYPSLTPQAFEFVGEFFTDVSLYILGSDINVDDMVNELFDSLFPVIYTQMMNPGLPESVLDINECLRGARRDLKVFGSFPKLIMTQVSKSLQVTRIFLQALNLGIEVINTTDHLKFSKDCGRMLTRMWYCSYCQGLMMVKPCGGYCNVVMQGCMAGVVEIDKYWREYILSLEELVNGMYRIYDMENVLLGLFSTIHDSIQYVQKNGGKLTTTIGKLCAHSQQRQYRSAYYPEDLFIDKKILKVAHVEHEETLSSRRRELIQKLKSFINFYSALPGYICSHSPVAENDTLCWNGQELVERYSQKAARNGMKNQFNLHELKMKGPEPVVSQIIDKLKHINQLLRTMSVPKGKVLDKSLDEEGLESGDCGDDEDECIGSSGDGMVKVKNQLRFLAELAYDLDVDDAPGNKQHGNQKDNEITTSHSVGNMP
# Sequence of FcγRI (P12314 16-288 limits assumed): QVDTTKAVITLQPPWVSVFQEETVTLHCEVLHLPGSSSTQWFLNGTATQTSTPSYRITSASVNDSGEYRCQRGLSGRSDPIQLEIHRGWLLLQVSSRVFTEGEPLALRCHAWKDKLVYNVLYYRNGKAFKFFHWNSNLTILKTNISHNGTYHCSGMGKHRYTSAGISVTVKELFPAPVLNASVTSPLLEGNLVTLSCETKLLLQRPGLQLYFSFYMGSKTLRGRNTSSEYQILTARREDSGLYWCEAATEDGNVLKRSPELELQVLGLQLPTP
# Sequence of FcγRIIIAV158 (P08637 17-208 F176V limits assumed): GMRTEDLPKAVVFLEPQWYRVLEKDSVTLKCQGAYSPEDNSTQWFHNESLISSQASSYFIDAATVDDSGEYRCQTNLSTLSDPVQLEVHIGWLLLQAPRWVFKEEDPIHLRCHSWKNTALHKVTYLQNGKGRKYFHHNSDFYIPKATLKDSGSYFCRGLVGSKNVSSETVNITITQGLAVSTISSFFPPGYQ
# Sequence of human CD137 ECD mutant F36A (Q07011 24-186 F36A limits assumed): as the sequence (Q07011 24-186 limits assumed) above, with F13A counted along it
# Sequence of C1q (P02745 23-245, chain 1 of 3): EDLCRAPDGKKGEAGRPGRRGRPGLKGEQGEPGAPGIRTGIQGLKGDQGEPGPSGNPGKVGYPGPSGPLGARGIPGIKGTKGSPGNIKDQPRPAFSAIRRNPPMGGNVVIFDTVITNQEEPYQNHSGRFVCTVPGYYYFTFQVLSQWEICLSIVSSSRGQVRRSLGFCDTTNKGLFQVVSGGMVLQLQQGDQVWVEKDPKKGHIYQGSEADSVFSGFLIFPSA
# Sequence of C1q (P02746 28-253, chain 2 of 3): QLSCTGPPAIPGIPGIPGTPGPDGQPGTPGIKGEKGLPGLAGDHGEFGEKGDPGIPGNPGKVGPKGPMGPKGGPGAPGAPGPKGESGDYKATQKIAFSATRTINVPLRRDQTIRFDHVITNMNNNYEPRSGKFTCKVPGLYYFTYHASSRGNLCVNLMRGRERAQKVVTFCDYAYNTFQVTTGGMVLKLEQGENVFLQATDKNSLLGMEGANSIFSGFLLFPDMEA
# Sequence of C1q (P02747 29-245, chain 3 of 3): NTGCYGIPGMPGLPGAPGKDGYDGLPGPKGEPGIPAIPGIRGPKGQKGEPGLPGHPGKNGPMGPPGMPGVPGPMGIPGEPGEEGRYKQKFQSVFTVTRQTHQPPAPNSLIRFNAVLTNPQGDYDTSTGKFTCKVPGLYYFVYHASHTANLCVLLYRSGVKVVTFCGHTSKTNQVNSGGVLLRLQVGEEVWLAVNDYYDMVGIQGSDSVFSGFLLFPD
# Sequence of FcγRIIIAF158 (P08637 17-208 limits assumed): as the sequence (P08637 17-208 F176V limits assumed) above, with V160F counted along it
# Sequence of human CD137 ECD mutant P49A (Q07011 24-186 P49A limits assumed): as the sequence (Q07011 24-186 limits assumed) above, with P26A counted along it
# Sequence of FcγRIIIB (O75015 17-200 limits assumed): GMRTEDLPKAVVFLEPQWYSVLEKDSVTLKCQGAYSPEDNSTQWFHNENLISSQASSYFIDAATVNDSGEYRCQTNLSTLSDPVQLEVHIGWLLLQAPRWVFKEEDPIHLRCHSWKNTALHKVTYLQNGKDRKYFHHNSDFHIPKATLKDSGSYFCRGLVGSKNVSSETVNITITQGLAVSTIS
binder,measurement,setting,value
B1,Kd,[1],40.1 nM
same,koff,[1],0.00484 s⁻¹
same,kon,[1],121000 M⁻¹ s⁻¹
same,Kd,[2],19.2 nM
same,koff,[2],0.00291 s⁻¹
same,kon,[2],152000 M⁻¹ s⁻¹
same,EC50 (read off the curve),[3],~0.008 µg/mL
same,EC50 (read off the curve),huGPC3-His,~0.04 µg/mL
same,Kd,[4],0.559 nM
same,koff,[4],0.000312 s⁻¹
same,kon,[4],559000 M⁻¹ s⁻¹
same,Kd,Monkey GPC3,0.643 nM
same,koff,Monkey GPC3,0.000273 s⁻¹
same,kon,Monkey GPC3,425000 M⁻¹ s⁻¹
same,EC50 (read off the curve),[5],~0.009 µg/mL
same,decrease of binding activity against wild type CD137,[6],> 75%
same,decrease of binding activity against wild type CD137,[7],> 75%
same,decrease of binding activity against wild type CD137,[8],> 75%
same,binding result,Mouse GPC3,no binding
same,binding result,Mouse CD137,no binding
same,EC50,human GPC3 on cells [9],1.11 µg/mL and 6.41 nM
same,EC50,[10],0.712 µg/mL and 4.09 nM
same,EC50 (read off the curve),C1q,~2 µg/mL
same,binding result,FcγRIIIAF158,no binding
same,binding result,FcγRIIB,no binding
same,binding result,FcγRIIIAV158,no binding
same,binding result,FcγRIIIB,no binding
same,binding result,FcγRI,no binding
same,binding result,FcγRIIAH131,no binding
same,binding result,FcγRIIAR131,no binding
same,EC50 (read off the curve),[11],~0.07 µg/mL
same,EC50 (read off the curve),[12],~0.07 µg/mL
same,"EC50, cell-based bioluminescent assay (NFκB luciferase in JK-NFκB-CD137 co-cultured with Hepa1-6T-OS8-GPC3)",[13],0.149 µg/ml and 0.86 nM
same,"EC50, cell-based bioluminescent assay (NFκB luciferase in JK-NFκB-CD137 co-cultured with Hepa1-6T-OS8-GPC3)",human GPC3 on cells [14],0.149 µg/ml and 0.86 nM
